Laboratory results taken from paper doi:10.1101/2025.03.26.645568.

Target: Mam1A_(107-213) (Mycobacterium tuberculosis H37Rv)
Test: SEC-MALS

## Mam1A_(107-213) (domain or fragment)
  stoichiometry N: 4
